We go through one substance from paper PMC3875342.

The target of this test is DP10.7 TCR (Vγ4Vδ1), soluble recombinant γδ TCR (human). Nature of the test: SPR. On the technique in general: SPR reads the build-up and loss of mass on a sensor chip optically.

Regarding “soluble, recombinant human CD1d (heterodimer with β2-microglobulin) (from UniProt P15813 20-301; P61769 21-119) (complex)”, the KD without sulfatide (CD1d loaded with 24:1 βGalCer) was more than 100 µM.
